Patent US20170233449A1

Target: type I interferon receptor (IFNAR1 and IFNAR2) on cells (human) (UniProt P17181)
Experiment: cell-based or functional assay

Chain of type I interferon receptor (IFNAR1 and IFNAR2) on cells (human) (P17181 28-557, chain 1 of 2): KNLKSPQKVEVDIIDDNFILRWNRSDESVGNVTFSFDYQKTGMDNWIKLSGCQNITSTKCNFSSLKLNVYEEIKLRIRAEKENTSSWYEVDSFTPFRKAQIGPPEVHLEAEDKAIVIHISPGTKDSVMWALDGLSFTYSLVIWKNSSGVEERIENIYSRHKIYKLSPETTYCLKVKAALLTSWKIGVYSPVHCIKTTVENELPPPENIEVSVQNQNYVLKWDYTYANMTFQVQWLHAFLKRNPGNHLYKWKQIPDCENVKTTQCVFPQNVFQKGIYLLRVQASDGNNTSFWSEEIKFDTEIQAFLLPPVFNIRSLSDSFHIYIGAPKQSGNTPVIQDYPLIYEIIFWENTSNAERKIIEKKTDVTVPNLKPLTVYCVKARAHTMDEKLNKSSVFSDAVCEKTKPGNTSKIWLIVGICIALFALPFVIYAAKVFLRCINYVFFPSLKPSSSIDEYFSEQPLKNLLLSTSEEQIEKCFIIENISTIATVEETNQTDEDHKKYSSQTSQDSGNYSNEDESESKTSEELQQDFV
Chain of type I interferon receptor (IFNAR1 and IFNAR2) on cells (human) (P48551 27-515, chain 2 of 2, further chain): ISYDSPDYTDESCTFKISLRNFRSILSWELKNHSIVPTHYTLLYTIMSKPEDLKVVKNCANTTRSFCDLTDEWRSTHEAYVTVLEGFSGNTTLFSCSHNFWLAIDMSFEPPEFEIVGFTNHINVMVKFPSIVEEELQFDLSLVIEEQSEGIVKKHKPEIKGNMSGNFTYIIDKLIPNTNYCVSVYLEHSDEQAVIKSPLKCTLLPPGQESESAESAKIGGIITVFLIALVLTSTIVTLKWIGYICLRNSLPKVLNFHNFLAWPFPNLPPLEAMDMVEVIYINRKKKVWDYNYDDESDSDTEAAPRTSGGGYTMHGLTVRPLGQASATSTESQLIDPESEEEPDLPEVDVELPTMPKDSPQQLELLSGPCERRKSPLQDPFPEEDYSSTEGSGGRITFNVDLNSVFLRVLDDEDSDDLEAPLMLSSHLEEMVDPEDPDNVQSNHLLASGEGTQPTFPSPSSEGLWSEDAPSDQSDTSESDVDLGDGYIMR

EC50 Off Target (pM) iLite: 0.799 pM
EC50 On Target (PM) ARP-1: 0.0105 nM
Substance: human interferon-β1 (IFNβ), free wild type (from UniProt P01574 22-187) (ligand)
